Measurements published in publication PMC3254608, “Inscuteable Regulates the Pins-Mud Spindle Orientation Pathway” (PLoS ONE, 2012).

T1: Pins TPR (residues 42-398), soluble (Drosophila, UniProt Q9VB22 42-398)
T1 construct: Partner of Inscuteable (Pins), Drosophila, residues 42-398, the TPR domain; it may be a hexahistidine fusion (pBH vector); also called Pins TPRs; source: E. coli BL21(DE3), purified
T1 sequence (looked up): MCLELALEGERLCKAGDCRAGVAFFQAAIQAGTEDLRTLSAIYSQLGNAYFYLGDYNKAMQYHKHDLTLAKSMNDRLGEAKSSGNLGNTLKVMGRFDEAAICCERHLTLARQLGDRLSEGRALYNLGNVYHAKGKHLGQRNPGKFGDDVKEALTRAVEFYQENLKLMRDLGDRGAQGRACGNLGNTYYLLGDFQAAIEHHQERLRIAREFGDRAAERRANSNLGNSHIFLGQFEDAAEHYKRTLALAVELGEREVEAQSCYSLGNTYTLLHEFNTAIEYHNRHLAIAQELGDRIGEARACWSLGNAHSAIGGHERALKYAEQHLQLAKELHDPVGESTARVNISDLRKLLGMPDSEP


Tests used:
[1] = molecular target: TMR-Mud peptide (Mud residues 1955-1970 with an NH2-terminal cysteine, labelled with tetramethylrhodamine) (Drosophila); assay: fluorescence polarisation; fluorescence anisotropy, direct titration: constant 100 nM TMR-Mud, increasing ligand, binding buffer, 20°C, fit to 1:1 binding
[2] = molecular target: T1, Pins TPR (residues 42-398), soluble; assay: fluorescence polarisation; fluorescence anisotropy, competition: Inscuteable added to a pre-formed complex of 100 nM TMR-Mud and 1 uM Pins, binding buffer, 20°C; settings: both partners purified

Row | Kd [1] [µM] | Kd [2] [µM] | Binder
1 | 1.1 | – | Pins TPR (residues 42-398), soluble (domain or fragment) MCLELALEGERLCKAGDCRAGVAFFQAAIQAGTEDLRTLSAIYSQLGNAYFYLGDYNKAMQYHKHDLTLAKSMNDRLGEAKSSGNLGNTLKVMGRFDEAAICCERHLTLARQLGDRLSEGRALYNLGNVYHAKGKHLGQRNPGKFGDDVKEALTRAVEFYQENLKLMRDLGDRGAQGRACGNLGNTYYLLGDFQAAIEHHQERLRIAREFGDRAAERRANSNLGNSHIFLGQFEDAAEHYKRTLALAVELGEREVEAQSCYSLGNTYTLLHEFNTAIEYHNRHLAIAQELGDRIGEARACWSLGNAHSAIGGHERALKYAEQHLQLAKELHDPVGESTARVNISDLRKLLGMPDSEP
2 | – | 5 | MBP-fusion of the central Ankyrin-repeat containing domain of Inscuteable (residues 252-600) (domain or fragment, Drosophila, UniProt Q24367 252-600, looked up, Inscuteable (Insc), Drosophila, residues 252-600, including the central Ankyrin-repeat containing region; pMAL-c2 based vector; also called MBP-Insc; source: E. coli BL21(DE3), purified (amylose resin)) APPPYNNETVTFGATEQDESLQQQPSPLRVRSLRFTASTSTPKSGSKIAKRGKKHPEPVASWMSEQRWAGEPEVMCTLQHKSIAQEAYKNYTITTSAVCKLVRQLQQQALSLQVHFERSERVLSGLQASSLPEALAGATQLLSHLDDFTATLERRGVFFNDAKIERRRYEQHLEQIRTVSKDTRYSLERQHYINLESLLDDVQLLKRHTLITLRLIFERLVRVLVISIEQSQCDLLLRANINMVATLMNIDYDGFRSLSDAFVQNEAVRTLLVVVLDHKQSSVRALALRALATLCCAPQAINQLGSCGGIEIVRDILQVESAGERGAIERREAVSLLAQITAAWHGSEH
